Results: patent US20220332829A1 (NANJING SANHOME PHARMACEUTICAL, published 2022)
Substitutions are numbered along the chain they refer to. One block for each binder: values may come before it.

What was measured:
[1] = molecular target: T1, B7-H3 on surface of tumor cell (786-0, MDA-MB-231, Raji-B7-H3 cells) (human, UniProt Q5ZPR3 29-534); assay: cell-based or functional assay
T1 sequence (looked up): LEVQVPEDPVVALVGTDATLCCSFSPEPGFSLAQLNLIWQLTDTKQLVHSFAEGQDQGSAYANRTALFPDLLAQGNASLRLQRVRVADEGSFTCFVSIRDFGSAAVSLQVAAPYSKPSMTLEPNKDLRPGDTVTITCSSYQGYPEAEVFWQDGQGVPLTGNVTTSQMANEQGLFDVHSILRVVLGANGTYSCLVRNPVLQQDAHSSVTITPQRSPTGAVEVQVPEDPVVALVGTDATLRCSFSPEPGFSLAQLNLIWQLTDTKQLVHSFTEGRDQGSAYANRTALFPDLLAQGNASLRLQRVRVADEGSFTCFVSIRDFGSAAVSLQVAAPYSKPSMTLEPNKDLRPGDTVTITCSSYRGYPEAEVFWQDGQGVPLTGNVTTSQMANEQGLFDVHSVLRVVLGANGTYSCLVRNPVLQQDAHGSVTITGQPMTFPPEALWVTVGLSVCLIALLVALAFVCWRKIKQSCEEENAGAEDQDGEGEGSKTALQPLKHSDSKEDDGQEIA

[2] = molecular target: T1, B7-H3 on surface of tumor cell (786-0, …); assay: FACS on MDA-MB-231 cells
Description: (§1) The binding activity of antibodies to B7-H3 on the surface of tumor cells was analyzed by FACS. Mean fluorescence intensity (MFI) and EC₅₀ detected by FACS indicate the binding activity of the antibody to cells. After 786-0 and MDA-MB-231 cells were digested, they were resuspended in 2% FBS-PBS solution and counted. After raji-B7-H3 cells were collected, they were resuspended in 2% FBS-PBS and counted. The above cells were plated in a cell plate with 1×10⁵ cells per well. The anti-B7-H3 antibody of the present disclosure was used as the primary antibody and added to cell plates in gradient dilution starting from 20 μg/mL with a total of 8 concentrations: 20,000 ng/mL, […], 2,000 ng/mL, 400 ng/mL, 80 ng/mL, 16 ng/mL, 3.2 ng/mL, and 0.64 ng/mL respectively. The plates were incubated at 4° C. for 1 h with hBRCA84D as the positive control antibody. PE-Anti-Human IgG (Biolegend, Cat. No. 409303, 1.25 μl/well) was used as the secondary antibody, washed, and detected for the fluorescence intensity generated by the binding of the antibody to the cell surface by a flow cytometer.

[3] = molecular target: T1, B7-H3 on surface of tumor cell (786-0, …); assay: FACS on 786-0 cells
Description: as §1

[4] = molecular target: T1, B7-H3 on surface of tumor cell (786-0, …); assay: FACS on Raji-B7-H3 cells
Description: as §1

[5] = molecular target: T2, human 4Ig-B7-H3-His protein (human, UniProt Q5ZPR3 29-466); assay: Biacore X100 SPR, 4Ig-B7-H3-His coupled to CM5 chip, antibody injected
T2 construct: also called human B7-H3 protein
T2 sequence: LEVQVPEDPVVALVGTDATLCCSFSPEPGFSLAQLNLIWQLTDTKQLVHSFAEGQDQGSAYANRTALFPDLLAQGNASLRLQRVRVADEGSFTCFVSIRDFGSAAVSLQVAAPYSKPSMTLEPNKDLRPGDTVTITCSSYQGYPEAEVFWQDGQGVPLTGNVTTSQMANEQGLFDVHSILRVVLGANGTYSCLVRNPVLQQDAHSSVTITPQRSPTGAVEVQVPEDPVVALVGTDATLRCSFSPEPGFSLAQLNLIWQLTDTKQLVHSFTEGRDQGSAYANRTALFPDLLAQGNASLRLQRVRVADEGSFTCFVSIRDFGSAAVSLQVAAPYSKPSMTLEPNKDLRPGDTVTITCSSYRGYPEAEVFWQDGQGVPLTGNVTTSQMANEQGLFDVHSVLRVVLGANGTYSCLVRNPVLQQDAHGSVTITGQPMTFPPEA
Excerpt: The humanized anti-B7-H3 antibodies prepared in Example 4 were subjected to affinity assay by Biacore. The antigen 4Ig-B7-H3-His was first coupled to the surface of a CM5 chip (GE, Cat. No. BR100012), and the active groups of the uncoupled protein were blocked with ethanolamine. After the baseline was stable, the hu39-01, hu65-13, and hBRCA84D antibodies were respectively diluted in equal proportions. The diluted antibodies of each concentration were placed on the sample injection tray of the instrument in sequence, and the program was set to inject samples respectively.

B1: SHS007-17-CHI (antibody, human IgG1, V domains shown)
VH: QVHLQQSGPELVKPGASVKMSCKASGFTFTDYVVSWVKQRTGQGLEWIGEIYPGGGFIHYNEKFKGKATLTADKSSNTAYMQLTSLTSEDSAVYFCARFPKYYFDYWGQGTTLTVSS
VL: DVVMTQTPLSLPVSLGDQASISCRSSQSIVHSNRYTYLEWYLQKPGQSLKLLIYGVSNRFSGVPDRFSGSGSGTDFTLKISRVEAEDMGVYYCFQSTLFPWTFGGGTKLEIK
- EC50 Ratio (ADCC, LDH method; EC50 of hBRCA84D divided by EC50 of the antibody; 786-0 target cells, human PBMC effectors) [1]: 20.1

B5: SHS007-39-CHI (antibody, human IgG1, V domains shown)
VH: EVQLQQSGPELVKPGASVKISCKTSGYTFTEYTIHWMKQSHGKSLEWIGGLNPNTGGTTYNQKFKDKATLTVDKSSSTAYMALRSLTSEDSAVYYCARKGGWFFLDYWGQGTTLIVSS
VL: QIVLTQSPAIMSASPREKVTMTCSASSSVSYMHWYQQKSGTSPKRWIYDTSKLASGVPARFRGSGSGTSYSLTISNMEAEDAATYYCQQWSSNPPTFGGGTKVEIK
- EC50 Ratio (ADCC, LDH method; EC50 of hBRCA84D divided by EC50 of the antibody; 786-0 target cells, human PBMC effectors) [1]: 212

B7: SHS007-51-CHI (antibody, V domains shown)
VH: EVQLVESGGDSVKPGGSLKLSCAASGFTFSSFGMSWVRQTPDKRLEWVATINSGDNYSYSPDSVKGRFTISRDNAKNILYLQMSSLKSEDTAMYYCARPHIFYYGSPAWFAYWGQGTLVTVSA
VL: DVVMTQTPLSLPVSLGDQASVSCRSRQSLVHSNGNTYLHWYLQRPGQSPKLLIYKVSNRFSGVPDRFSGSGSGTDFTLKISRVEAEDLGVYFCSQSTHVPLTFGAGTKLELK
- EC50 Ratio (ADCC, LDH method; EC50 of hBRCA84D divided by EC50 of the antibody; 786-0 target cells, human PBMC effectors) [1]: 6.6

B8: SHS007-59-CHI (antibody, V domains shown)
VH: EVQLQQSGPELVKPGTSVKIPCKASGYTFTDYHMDWVKQSHGKSLEWIGDINPNNGGTIYNQKFKGKATLTVDKSSSTAYMELRGLTSEDTAVYYCARGGLHDYWGPGTTLTVSS
VL: DIVMTQSQKFMSTKVGDRVSITCKASQSVGTAVAWYQQKPGQSPKLLIYSTSNRYTGVPDRFTNNASGTDFTLTISNVQSADLADYFCQQYGNYPLTFGGGTKLEIK
- EC50 Ratio (ADCC, LDH method; EC50 of hBRCA84D divided by EC50 of the antibody; 786-0 target cells, human PBMC effectors) [1]: 4.4

Results, then the binder that gave them:

- EC50 Ratio (ADCC, LDH method; EC50 of hBRCA84D divided by EC50 of the antibody; 786-0 target cells, human PBMC effectors) [1]: 11.4
B2: SHS007-95-CHI (antibody, V domains shown)
VH: EVKLVESGGELVKPGGSLKLSCAASGFTLSSYVMSWVRQTPEKRLEWVAAISRYGDPTNFPDNMRDRFTISRDNAKNTLSLQMSSLRSEDTALYFCARHHFDGTSWYFDVWGPGTTVTVSS
VL: EIVLTQSPALMAASPGERVTITCSVSSSISSIDLHWYQQKSGTFPKLWIYGTSNLASGVPVRFSGSGSGTSYSLTISTMEAEDAATYYCQQWSSFPLTFGSGTKLEIK

- EC50 [2]: 0.14 µg/mL
- Mean fluorescence intensity (MFI) [2]: 151000
- EC50 [3]: 0.266 µg/mL
- Mean fluorescence intensity (MFI) [3]: 566000
- EC50 [4]: 0.266 µg/mL
- Mean fluorescence intensity (MFI) [4]: 566000
- Kd [5]: 198 pM
- koff [5]: 1.89e-05 s⁻¹
- kon [5]: 95400 M⁻¹ s⁻¹
B3: hu65-13 (antibody, human IgG1, V domains shown)
VH: EVQLVESGGGLVQPGGSLRLSCAASGFTFSDYGIHWVRQAPGKGLEWVSYISSGSNTIYYADTVKGRFTISRDNAKNSLYLQMNSLRAEDTAVYYCATMVTRWFYYAMDYWGQGTTVTVSS
VL: EIVLTQSPATLSLSPGERATLSCSASSSVSYMYWYQQKPGQAPRRLIYDTSKLASGVPARFSGSGSGTDYTLTISSLEPEDFAVYYCQQWSSNPPTFGQGTKLEIK
notes: expressed in HEK293E; also called humanized anti-B7-H3 antibody hu65-13

- EC50 Ratio (ADCC, LDH method; EC50 of hBRCA84D divided by EC50 of the antibody; 786-0 target cells, human PBMC effectors) [1]: 7.1
B4: SHS007-72-CHI (antibody, V domains shown)
VH: QVQLVQSGPELKKPGETVKISCKASGYTFTNYGMYWVKQAPGEGLKWMGWINTHTGEPTYGDDFKGRFAFSLETPATIAFLEISILKNEDTATYFCARKSFGDFIYAMDFWGQGTSVTVSS
VL: DIQMTQTTSSLSASLGDRVTISCRASQDIGKYLNWYQQKPDGTVKLLIYYTSRLHLGVPSRFSGSGSGTDFSLTISNLEQEDTATYFCQQGTTLPPTFGGGTKVEIK

- EC50 Ratio (ADCC, LDH method; EC50 of hBRCA84D divided by EC50 of the antibody; 786-0 target cells, human PBMC effectors) [1]: 18.6
B6: SHS007-65-CHI (antibody, human IgG1, V domains shown)
VH: B3 VH with Q13K, R19K, G42E, S49A, S78T, Y80F, N84T, A88S, V93I, T116S
VL: B5 VL with R16G, H33Y, R62S, S75N, G99A, V103L, I105L
